# Measured values taken from the supplement of paper PMC10567573.
# B1: DFFB (parent)
# chain: KLNCDPSRIYKPQTRLKRKQPVRK
# Variants of: B1
# Assay: protein stability index of a GFP-peptide fusion (GPS, HEK-293T) (PSI 1-6); higher = more stable
# Details: c terminus: a fixed tail appended
# 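Further: lentivirally expressed fusions sorted by FACS into six bins by GFP to DsRed ratio, PSI derived from sequencing read proportions per bin multiplied by bin number.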
row,Variant,protein stability index
1,KLNCDPSHIYKPQTRLKRKQPVRK [R8H],3.61
2,KLNCDPSFIYKPQTRLKRKQPVRK [R8F],3.55
3,KLNCDPSEIYKPQTRLKRKQPVRK [R8E],4.21
4,KLNCDPSGIYKPQTRLKRKQPVRK [R8G],3.83
5,KLNCDPSPIYKPQTRLKRKQPVRK [R8P],3.58
6,KLNCDPSYIYKPQTRLKRKQPVRK [R8Y],2.77
7,KLNCDPSTIYKPQTRLKRKQPVRK [R8T],2.81
8,KLNCDPSVIYKPQTRLKRKQPVRK [R8V],2.94
9,KLNCDPSKIYKPQTRLKRKQPVRK [R8K],4
10,KLNCDPSIIYKPQTRLKRKQPVRK [R8I],2.93
11,KLNCDPSNIYKPQTRLKRKQPVRK [R8N],3.38
12,KLNCDPSSIYKPQTRLKRKQPVRK [R8S],3.2
13,KLNCDPSMIYKPQTRLKRKQPVRK [R8M],3.23
14,KLNCDPSDIYKPQTRLKRKQPVRK [R8D],3.63
15,KLNCDPSQIYKPQTRLKRKQPVRK [R8Q],3.57
16,KLNCDPSAIYKPQTRLKRKQPVRK [R8A],3.84
17,KLNCDPSWIYKPQTRLKRKQPVRK [R8W],3.29
18,KLNCDPSCIYKPQTRLKRKQPVRK [R8C],3.63
19,KLNCDPSLIYKPQTRLKRKQPVRK [R8L],2.9
20,KLNCDPSRITKPQTRLKRKQPVRK [Y10T],3.35
21,KLNCDPSRIAKPQTRLKRKQPVRK [Y10A],2.92
22,KLNCDPSRIMKPQTRLKRKQPVRK [Y10M],3.38
23,KLNCDPSRIHKPQTRLKRKQPVRK [Y10H],3.86
24,KLNCDPSRIVKPQTRLKRKQPVRK [Y10V],2.94

row,Variant,protein stability index
1,KLNCDPSRIGKPQTRLKRKQPVRK [Y10G],2.28
2,KLNCDPSRIKKPQTRLKRKQPVRK [Y10K],3.21
3,KLNCDPSRINKPQTRLKRKQPVRK [Y10N],3.57
4,KLNCDPSRIQKPQTRLKRKQPVRK [Y10Q],2.75
5,KLNCDPSRILKPQTRLKRKQPVRK [Y10L],3.84
6,KLNCDPSRIIKPQTRLKRKQPVRK [Y10I],3.6
7,KLNCDPSRIRKPQTRLKRKQPVRK [Y10R],3.56
8,KLNCDPSRISKPQTRLKRKQPVRK [Y10S],4.16
9,KLNCDPSRIDKPQTRLKRKQPVRK [Y10D],3.55
10,KLNCDPSRIFKPQTRLKRKQPVRK [Y10F],2.58
11,KLNCDPSRIEKPQTRLKRKQPVRK [Y10E],3.56
12,KLNCDPSRICKPQTRLKRKQPVRK [Y10C],3.62
13,KLNCDPSRIWKPQTRLKRKQPVRK [Y10W],3.47
14,KLNCDPSRIPKPQTRLKRKQPVRK [Y10P],3.72
15,KLNCDPSRIYHPQTRLKRKQPVRK [K11H],2.94
16,KLNCDPSRIYQPQTRLKRKQPVRK [K11Q],2.07
17,KLNCDPSRIYMPQTRLKRKQPVRK [K11M],3.02
18,KLNCDPSRIYYPQTRLKRKQPVRK [K11Y],3.94
19,KLNCDPSRIYPPQTRLKRKQPVRK [K11P],3.15
20,KLNCDPSRIYWPQTRLKRKQPVRK [K11W],3.3
21,KLNCDPSRIYVPQTRLKRKQPVRK [K11V],3.95
22,KLNCDPSRIYFPQTRLKRKQPVRK [K11F],3.09
23,KLNCDPSRIYTPQTRLKRKQPVRK [K11T],3.2
24,KLNCDPSRIYSPQTRLKRKQPVRK [K11S],2.89

row,Variant,protein stability index
1,KLNCDPSRIYNPQTRLKRKQPVRK [K11N],2.98
2,KLNCDPSRIYLPQTRLKRKQPVRK [K11L],2.99
3,KLNCDPSRIYEPQTRLKRKQPVRK [K11E],4.3
4,KLNCDPSRIYIPQTRLKRKQPVRK [K11I],3.16
5,KLNCDPSRIYCPQTRLKRKQPVRK [K11C],3.9
6,KLNCDPSRIYDPQTRLKRKQPVRK [K11D],3.21
7,KLNCDPSRIYRPQTRLKRKQPVRK [K11R],3.53
8,KLNCDPSRIYAPQTRLKRKQPVRK [K11A],4.01
9,KLNCDPSRIYGPQTRLKRKQPVRK [K11G],3.17
10,KLNCDPSREYKPQTRLKRKQPVRK [I9E],3.93
11,KLNCDPSRRYKPQTRLKRKQPVRK [I9R],2.91
12,KLNCDPSRSYKPQTRLKRKQPVRK [I9S],2.51
13,KLNCDPSRQYKPQTRLKRKQPVRK [I9Q],3.9
14,KLNCDPSRWYKPQTRLKRKQPVRK [I9W],2.82
15,KLNCDPSRKYKPQTRLKRKQPVRK [I9K],3.84
16,KLNCDPSRVYKPQTRLKRKQPVRK [I9V],3.52
17,KLNCDPSRDYKPQTRLKRKQPVRK [I9D],4.04
18,KLNCDPSRMYKPQTRLKRKQPVRK [I9M],3.3
19,KLNCDPSRYYKPQTRLKRKQPVRK [I9Y],3.32
20,KLNCDPSRTYKPQTRLKRKQPVRK [I9T],3.31
21,KLNCDPSRHYKPQTRLKRKQPVRK [I9H],3.31
22,KLNCDPSRGYKPQTRLKRKQPVRK [I9G],3.47
23,KLNCDPSRAYKPQTRLKRKQPVRK [I9A],3.57
24,KLNCDPSRFYKPQTRLKRKQPVRK [I9F],3.83

row,Variant,protein stability index
1,KLNCDPSRLYKPQTRLKRKQPVRK [I9L],3.81
2,KLNCDPSRNYKPQTRLKRKQPVRK [I9N],4.01
3,KLNCDPSRCYKPQTRLKRKQPVRK [I9C],4.01
4,KLNCDPYRIYKPQTRLKRKQPVRK [S7Y],2.73
5,KLNCDPVRIYKPQTRLKRKQPVRK [S7V],3.21
6,KLNCDPRRIYKPQTRLKRKQPVRK [S7R],2.98
7,KLNCDPMRIYKPQTRLKRKQPVRK [S7M],3.07
8,KLNCDPIRIYKPQTRLKRKQPVRK [S7I],3.41
9,KLNCDPQRIYKPQTRLKRKQPVRK [S7Q],3.87
10,KLNCDPNRIYKPQTRLKRKQPVRK [S7N],3.55
11,KLNCDPLRIYKPQTRLKRKQPVRK [S7L],3.73
12,KLNCDPKRIYKPQTRLKRKQPVRK [S7K],3.21
13,KLNCDPPRIYKPQTRLKRKQPVRK [S7P],3.19
14,KLNCDPTRIYKPQTRLKRKQPVRK [S7T],3.46
15,KLNCDPWRIYKPQTRLKRKQPVRK [S7W],3.78
16,KLNCDPSRIYKDQTRLKRKQPVRK [P12D],3.09
17,KLNCDPSRIYKFQTRLKRKQPVRK [P12F],3.38
18,KLNCDPSRIYKAQTRLKRKQPVRK [P12A],3.47
19,KLNCDPSRIYKEQTRLKRKQPVRK [P12E],4.24
20,KLNCDPSRIYKCQTRLKRKQPVRK [P12C],3.21
21,KLNCDPSRIYKHQTRLKRKQPVRK [P12H],3.13
22,KLNCDPSRIYKGQTRLKRKQPVRK [P12G],3.3
